What was measured:
DDX43 KH-126 = target: T1, DDX43 KH-126 (UniProt Q9NXZ2); assay: filter binding; details: EMSA: 40 mM Tris pH 8.0, 0.5 mM MgCl2, 15 mM NaCl, 0.01% NP-40, 0.1 mM DTT, 1 mg/ml BSA, no ATP, ice 30 min (Fig 2A legend: RT); filter binding: 25 mM Tris pH …
T1 sequence: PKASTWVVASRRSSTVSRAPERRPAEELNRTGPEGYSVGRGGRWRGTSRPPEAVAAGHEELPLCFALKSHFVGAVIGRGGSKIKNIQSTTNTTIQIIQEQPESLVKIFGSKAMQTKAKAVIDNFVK

[1] = target: DDX43 KH-domain protein KH-126 (human) (UniProt Q9NXZ2); assay: SEC; Sephacryl S-100 high-resolution column calibrated with molecular mass standards; buffer A (25 mM Tris pH 8.0, 0.15 M NaCl, 100 uM Tween 20, 10% glycerol), 0.5 ml/min
DDX43 KH-89 [2] = target: T2, DDX43 KH-89 (UniProt Q9NXZ2 54-142); assay: NMR HSQC titration; EMSA: 40 mM Tris pH 8.0, 0.5 mM MgCl2, 15 mM NaCl, 0.01% NP-40, 0.1 mM DTT, 1 mg/ml BSA, no ATP, ice 30 min (Fig 2A legend: RT); filter binding: 25 mM Tris pH 7.5, 25 mM KOAc, 1 mM Mg(OAc)2, 1 mM DTT, 0.1 mg/ml BSA, 37 C; NMR: 25 mM Hepes pH 7.4, 250 mM NaCl, 5% D2O, temperature not stated; details: protein: recombinant; His removed by thrombin for NMR; 15N
T2 sequence: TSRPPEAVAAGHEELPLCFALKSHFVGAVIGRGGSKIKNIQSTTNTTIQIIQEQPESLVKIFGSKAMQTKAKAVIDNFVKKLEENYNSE

DDX43 full-length WT [3] = target: T3, DDX43 full-length WT (UniProt Q9NXZ2 1-648); assay: EMSA; no ATP; preferred DNA; EMSA: 40 mM Tris pH 8.0, 0.5 mM MgCl2, 15 mM NaCl, 0.01% NP-40, 0.1 mM DTT, 1 mg/ml BSA, no ATP, ice 30 min (Fig 2A legend: RT); filter binding: 25 mM Tris pH 7.5, 25 mM KOAc, 1 mM Mg(OAc)2, 1 mM DTT, 0.1 mg/ml BSA, 37 C; NMR: 25 mM Hepes pH 7.4, 250 mM NaCl, 5% D2O, temperature not stated; details: protein: recombinant; (pET28a); label: 5'-32P; 20 bp, 3' overhang 25 nt on strand 1
T3 sequence (Q9NXZ2 whole entry): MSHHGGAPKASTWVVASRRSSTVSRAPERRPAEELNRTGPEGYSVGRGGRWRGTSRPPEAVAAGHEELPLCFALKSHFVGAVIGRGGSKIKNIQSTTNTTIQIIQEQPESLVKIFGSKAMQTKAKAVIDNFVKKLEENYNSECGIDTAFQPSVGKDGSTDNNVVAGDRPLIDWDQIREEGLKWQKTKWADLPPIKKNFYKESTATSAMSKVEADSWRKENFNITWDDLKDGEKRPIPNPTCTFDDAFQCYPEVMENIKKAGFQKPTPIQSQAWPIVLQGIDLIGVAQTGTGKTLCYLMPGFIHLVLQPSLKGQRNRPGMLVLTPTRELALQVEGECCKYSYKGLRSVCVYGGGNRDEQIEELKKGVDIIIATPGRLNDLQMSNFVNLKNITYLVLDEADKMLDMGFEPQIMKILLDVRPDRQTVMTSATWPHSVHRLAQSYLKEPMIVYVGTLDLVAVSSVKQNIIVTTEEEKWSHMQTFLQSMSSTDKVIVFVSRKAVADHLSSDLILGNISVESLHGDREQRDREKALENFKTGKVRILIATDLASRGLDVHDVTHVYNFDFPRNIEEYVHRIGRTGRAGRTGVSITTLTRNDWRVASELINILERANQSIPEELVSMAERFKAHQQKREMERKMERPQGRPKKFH

DDX43 full-length WT [4] = target: T3, DDX43 full-length WT; assay: EMSA; no ATP; preferred RNA; EMSA: 40 mM Tris pH 8.0, 0.5 mM MgCl2, 15 mM NaCl, 0.01% NP-40, 0.1 mM DTT, 1 mg/ml BSA, no ATP, ice 30 min (Fig 2A legend: RT); filter binding: 25 mM Tris pH 7.5, 25 mM KOAc, 1 mM Mg(OAc)2, 1 mM DTT, 0.1 mg/ml BSA, 37 C; NMR: 25 mM Hepes pH 7.4, 250 mM NaCl, 5% D2O, temperature not stated; details: protein: recombinant; (pET28a); label: 5'-32P; 13 bp, 5' overhang 15 nt on strand 1
DDX43 KH-89 A81G = target: T4, DDX43 KH-89 A81G (UniProt Q9NXZ2 54-142, A81G); assay: NMR HSQC titration; fewer residues shifted, larger shifts than WT; EMSA: 40 mM Tris pH 8.0, 0.5 mM MgCl2, 15 mM NaCl, 0.01% NP-40, 0.1 mM DTT, 1 mg/ml BSA, no ATP, ice 30 min (Fig 2A legend: RT); filter binding: 25 mM Tris pH 7.5, 25 mM KOAc, 1 mM Mg(OAc)2, 1 mM DTT, 0.1 mg/ml BSA, 37 C; NMR: 25 mM Hepes pH 7.4, 250 mM NaCl, 5% D2O, temperature not stated; details: protein: recombinant; tags: His cleaved by thrombin
T4 sequence: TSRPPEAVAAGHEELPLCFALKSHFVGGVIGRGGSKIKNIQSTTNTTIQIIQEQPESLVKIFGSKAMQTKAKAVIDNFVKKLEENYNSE

DDX43 KH-89 [5] = target: T2, DDX43 KH-89; assay: NMR HSQC titration; negligible shift changes; EMSA: 40 mM Tris pH 8.0, 0.5 mM MgCl2, 15 mM NaCl, 0.01% NP-40, 0.1 mM DTT, 1 mg/ml BSA, no ATP, ice 30 min (Fig 2A legend: RT); filter binding: 25 mM Tris pH 7.5, 25 mM KOAc, 1 mM Mg(OAc)2, 1 mM DTT, 0.1 mg/ml BSA, 37 C; NMR: 25 mM Hepes pH 7.4, 250 mM NaCl, 5% D2O, temperature not stated; details: protein: recombinant; His removed by thrombin for NMR; 15N
DDX43 KH-89 [6] = target: T2, DDX43 KH-89; assay: EMSA; EMSA: 40 mM Tris pH 8.0, 0.5 mM MgCl2, 15 mM NaCl, 0.01% NP-40, 0.1 mM DTT, 1 mg/ml BSA, no ATP, ice 30 min (Fig 2A legend: RT); filter binding: 25 mM Tris pH 7.5, 25 mM KOAc, 1 mM Mg(OAc)2, 1 mM DTT, 0.1 mg/ml BSA, 37 C; NMR: 25 mM Hepes pH 7.4, 250 mM NaCl, 5% D2O, temperature not stated; details: protein: recombinant; His removed by thrombin for NMR; 15N; label: 5'-32P

For TTTTTTTTTTTTTTTTTTTTTTTTTTTTTT [dT30], the Kd (DDX43 KH-126) was 2.45 µM.

“GAGCUACCAGCUACCCCGUAUGUCAGAGAG [ssRNA 30-mer]” was tested, and the Kd (DDX43 KH-126) was 3.01 µM.

In the case of “GAGCTACCAGCTACCCCGTATGTCAGAGAG [ssDNA 30-mer]”, the Kd (DDX43 KH-126) is reported as 1.41 µM.

In the case of “UUUUUUUUUUUUUUUGGUGAUGGUGUAUUGAGUGGGAUGCAUGCA / UGCAUGCAUCCCACUCAAUACACCAUCACCUUUUUUUUUUUUUUU [forked dsRNA 30/15]”, the Kd (DDX43 KH-126) is reported as 2.5 µM.

UUUUUUUUUUUUUUUUUUUUUUUUUUUUUU [rU30] showed a Kd (DDX43 KH-126) of 1.48 µM.

In the case of “DDX43 KH-domain protein KH-126 (from UniProt Q9NXZ2 67-128) (domain or fragment)”, the stoichiometry N [1] is reported as 2.

With “TTTTTTTTTTTTTTTGGTGATGGTGTATTGAGTGGGATGCATGCA / TGCATGCATCCCACTCAATACACCATCACCTTTTTTTTTTTTTTT [fork dsDNA 30/15]” the Kd (DDX43 KH-126) was 1.29 µM.

Work on UUUUU (ssRNA) [rU5] yielded a Kd (DDX43 KH-89 [2]) of 1800 ± 200 µM.

CTCTC (ssDNA): binds (DDX43 KH-89 [2]).

B1: 20-bp dsDNA 3' TTGT-repeat tail (dsDNA)
DNA 1: CCACTCAATACACCATCACCTTGTTGTTGTTGTTGTTGTTGTTGT
DNA 2: GGTGATGGTGTATTGAGTGG
B1: binds (DDX43 full-length WT [3]).

B2: 13-bp dsRNA 5' UUGU-repeat tail (dsRNA)
RNA 1: UGUUGUUGUUGUUGUACCGUAAAGACGC
RNA 2: GCGUCUUUACGGU
B2: binds (DDX43 full-length WT [4]).

GTTGT (ssDNA) gave a Kd (DDX43 KH-89 [2]) of 44 µM.

In the case of CCCCC (ssDNA) [dC5], the Kd (DDX43 KH-89 [2]) is reported as 2100 ± 400 µM.

With CGCGC (ssDNA) the Kd (DDX43 KH-89 [2]) was 266 µM.

With TGTGT (ssDNA) the Kd (DDX43 KH-89 [2]) was 78 µM.

With TTTTT (ssDNA) [dT5] the Kd (DDX43 KH-89 [2]) was 1500 ± 290 µM and the binding result (DDX43 KH-89 A81G) was “binds”.

GGGGG (ssDNA) [dG5]: no binding (DDX43 KH-89 [5]).

AAAAA (ssDNA) [dA5]: no binding (DDX43 KH-89 [5]).

GAGCUACCAGCUACCCCGUAUGUCAGAGAG (ssRNA) [ssRNA 30-mer]: binds (DDX43 KH-89 [6]).

GAGCTACCAGCTACCCCGTATGTCAGAGAG (ssDNA) [ssDNA 30-mer]: binds (DDX43 KH-89 [6]).

TTTTTTTTTT (ssDNA) [dT10] showed a Kd (DDX43 KH-89 [2]) of 174 ± 90 µM.
